This is an account of results in paper PMC11387445, “L-Lactate dehydrogenase from Cyanidioschyzon merolae shows high catalytic efficiency for pyruvate reduction and is inhibited by ATP” (Plant Molecular Biology, 2024).

The target in data set [1] is T1, CmLDH1 (Cyanidioschyzon merolae, UniProt M1V6D8).
T1 construct: gene CYME_CMA145C; full length, 354 residues; E. coli BL21(DE3)
T1 sequence (M1V6D8 1-354): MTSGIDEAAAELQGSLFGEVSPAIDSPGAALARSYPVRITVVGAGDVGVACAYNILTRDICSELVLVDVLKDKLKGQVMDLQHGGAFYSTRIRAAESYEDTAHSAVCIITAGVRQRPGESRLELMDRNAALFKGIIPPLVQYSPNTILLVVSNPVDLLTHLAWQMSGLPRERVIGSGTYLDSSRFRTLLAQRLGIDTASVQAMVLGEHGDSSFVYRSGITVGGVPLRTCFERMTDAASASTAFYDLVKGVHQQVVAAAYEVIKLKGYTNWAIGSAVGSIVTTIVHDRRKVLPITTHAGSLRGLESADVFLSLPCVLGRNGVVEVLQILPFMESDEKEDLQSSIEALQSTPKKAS
The data set can be described thus: NADH oxidation at […] nm, relative activity. As to conditions: activation; 5 mM FBP, 0.20 mM pyruvate, 0.05 mM NADH, pH 7.0, 57 °C. It is filed as biochemical.

Data set [2] deals with T1, CmLDH1. Put plainly: NADH oxidation at […] nm, relative activity. As to conditions: inhibition, 0.20 mM pyruvate, 0.05 mM NADH, pH 7.0, 57 °C. It is filed as biochemical.
Substrate in data set [3]: NC(=O)C1=CN([C@@H]2O[C@H](COP(=O)(O)OP(=O)(O)OC[C@H]3O[C@@H](n4cnc5c(N)ncnc54)[C@H](O)[C@@H]3O)[C@@H](O)[C@H]2O)C=CC1
The data set can be described thus: purified protein. Particulars: 2 mM sodium pyruvate, pH 4.5 (optimum), 57 °C, no effector. It is filed as biochemical, Cyanidioschyzon merolae.

Substrate in data set [4]: CC(=O)C(=O)O
Put plainly: purified protein. It is filed as biochemical, Cyanidioschyzon merolae. Particulars: 0.15 mM NADH, pH 4.5 (optimum), 57 °C, no effector.

For the molecule `O=P(O)(O)OC[C@H]1OC(O)(COP(=O)(O)O)[C@@H](O)[C@@H]1O` (stereo partly drawn) [FBP], the “relative activity at 5 mM” value in data set [1] came to 1.2 fold.
For `Nc1ncnc2c1ncn2[C@@H]1O[C@H](COP(=O)(O)OP(=O)(O)O)[C@@H](O)[C@H]1O` [ADP], in data set [2], the relative activity result is “ATP and ADP (particularly ATP) decreased CmLDH1 activity”.
Regarding `Nc1ncnc2c1ncn2[C@@H]1O[C@H](COP(=O)(O)OP(=O)(O)OP(=O)(O)O)[C@@H](O)[C@H]1O` [ATP], the relative activity result in data set [2] (mixed inhibitor for NADH) was “ATP and ADP (particularly ATP) decreased CmLDH1 activity”.

B1: CmLDH1 (Cyanidioschyzon merolae strain 10D) (protein)
chain: T1 sequence (M1V6D8 1-354)
notes: full length, 354 residues; E. coli BL21(DE3)
For orientation: kcat means the maximal rate divided by the concentration of active sites. Broadly, the kcat/Km is the turnover number divided by the Michaelis constant. Take B1: in data set [3], the K0.5 came out at 0.011 ± 0.0006 mM, the kcat was 324 ± 6 s⁻¹ and the kcat/Km was found to be 2.95e+07 ± 1.05e+06 M⁻¹ s⁻¹. Further, in data set [4], the K0.5 came out at 0.13 ± 0.005 mM, the kcat amounted to 314 ± 3 s⁻¹ and the kcat/Km is 2.46e+06 ± 75000 M⁻¹ s⁻¹.
